Test results as given in patent publication EP4696312A1 (IMBIORAY (HANGZHOU) BIOMEDICINE CO., LTD., dated 2024).
Changes are numbered by the printed parent chain.

Key:
Human Trop2 = biological target: T1, Human Trop2 (human, UniProt P09758 27-274); assay: BLI (OctetR8), Trop2 on His-K probes, antibody in solution
T1 construct: Recombinant protein loaded onto His-K biosensors; also called TACSTD2; EGP-1
T1 sequence (looked up): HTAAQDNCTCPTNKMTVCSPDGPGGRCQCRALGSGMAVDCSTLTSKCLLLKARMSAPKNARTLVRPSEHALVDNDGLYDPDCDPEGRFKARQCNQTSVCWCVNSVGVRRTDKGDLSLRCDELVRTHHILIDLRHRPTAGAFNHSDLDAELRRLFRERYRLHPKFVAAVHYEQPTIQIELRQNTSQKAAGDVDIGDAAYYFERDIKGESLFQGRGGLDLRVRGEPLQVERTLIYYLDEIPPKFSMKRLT

Rhesus macaque Trop2 = biological target: T2, Rhesus macaque Trop2 (rhesus macaque, UniProt A0A5F8AGB8 27-274); assay: as above
T2 construct: Recombinant protein loaded onto His-K biosensors
T2 sequence: T1 sequence (looked up) with M36V, S67N, I204V

Kd (Human Trop2): 22.6 nM
koff (Human Trop2): 0.0127 s⁻¹
kon (Human Trop2): 564000 M⁻¹ s⁻¹
koff (Rhesus macaque Trop2): < 1e-07 s⁻¹
kon (Rhesus macaque Trop2): 569000 M⁻¹ s⁻¹
B1: L2-conjugated antibody (anti-Trop2 monoclonal antibody conjugated to L2 linker) (antibody, human IgG1, V domains shown)
VH: EVQLVESGGGLVQPGGSLRLSCAASGFTFNNYAMSWVRQAPGKGLEWVSTISSDGTYTYYADSVKGRFTISRDNSKNTLYLQMNSLRAEDTAVYYCARHPPSYYYAFDYWGQGTTLTVSS
VL: EIVLTQSPGTLSLSPGERATLSCRASESVDSYGNSFIHWYQQKPGQAPRLLIYLASNLESGIPDRFSGSGSGTDFTLTISRLEPEDFAVYYCQQNNEDLWTFGGGTKLEIKA
modifications: L2 linker coupled to lysine residue(s); 1-4 (preferably 1-2) L2 linkers per antibody; chain and positions not stated; L2 linker (dibenzoazacyclooctyne-glutaryl-amino tetraethylene glycol-pentafluorophenyl acetylpiperidinate) coupled to lysine residue(s); 1-4 (preferably 1-2) L2 linkers per antibody; chain and positions not stated
notes: Each chain is the variable region followed by the constant region; also called IB12 (name of the expression plasmid)
